One assay deals with human GLP-1 receptor (human, UniProt P43220 24-463). Kind of assay: cell-based or functional assay.
For the next assay, the target named is human glucagon receptor (human, UniProt P47871 26-477). Kind of assay: cell-based or functional assay.

Where no end group is shown, it is not given here. [ ]: non-standard residue; d: D form.

Sequence of human glucagon receptor (P47871 26-477): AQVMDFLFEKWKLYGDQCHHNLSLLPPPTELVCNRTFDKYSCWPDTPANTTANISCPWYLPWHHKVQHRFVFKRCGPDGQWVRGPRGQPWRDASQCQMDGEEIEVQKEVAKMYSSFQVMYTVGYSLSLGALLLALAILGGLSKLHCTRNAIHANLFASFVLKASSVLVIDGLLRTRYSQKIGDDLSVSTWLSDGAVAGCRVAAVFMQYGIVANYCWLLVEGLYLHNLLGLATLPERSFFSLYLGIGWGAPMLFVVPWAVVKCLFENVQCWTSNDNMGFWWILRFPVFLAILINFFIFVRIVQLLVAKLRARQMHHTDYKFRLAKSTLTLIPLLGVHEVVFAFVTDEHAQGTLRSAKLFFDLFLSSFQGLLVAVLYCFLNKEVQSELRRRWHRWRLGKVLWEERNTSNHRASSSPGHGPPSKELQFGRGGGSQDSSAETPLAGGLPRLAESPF

B1: SEQ ID NO: (43) (peptide)
peptide: H[dS]QGTFTSDLSKQFDSRRAQDFIEWLKNGGPSSGAPPPS-NH2
modifications: N-terminus assumed
SMILES: CC[C@H](C)[C@H](NC(=O)[C@H](Cc1ccccc1)NC(=O)[C@H](CC(=O)O)NC(=O)[C@H](CCC(N)=O)NC(=O)[C@H](C)NC(=O)[C@H](CCCNC(=N)N)NC(=O)[C@H](CCCNC(=N)N)NC(=O)[C@H](CO)NC(=O)[C@H](CC(=O)O)NC(=O)[C@H](Cc1ccccc1)NC(=O)[C@H](CCC(N)=O)NC(=O)[C@H](CCCCN)NC(=O)[C@H](CO)NC(=O)[C@H](CC(C)C)NC(=O)[C@H](CC(=O)O)NC(=O)[C@H](CO)NC(=O)[C@@H](NC(=O)[C@H](Cc1ccccc1)NC(=O)[C@@H](NC(=O)CNC(=O)[C@H](CCC(N)=O)NC(=O)[C@@H](CO)NC(=O)[C@@H](N)Cc1c[nH]cn1)[C@@H](C)O)[C@@H](C)O)C(=O)N[C@@H](CCC(=O)O)C(=O)N[C@@H](Cc1c[nH]c2ccccc12)C(=O)N[C@@H](CC(C)C)C(=O)N[C@@H](CCCCN)C(=O)N[C@@H](CC(N)=O)C(=O)NCC(=O)NCC(=O)N1CCC[C@H]1C(=O)N[C@@H](CO)C(=O)N[C@@H](CO)C(=O)NCC(=O)N[C@@H](C)C(=O)N1CCC[C@H]1C(=O)N1CCC[C@H]1C(=O)N1CCC[C@H]1C(=O)N[C@@H](CO)C(N)=O
As to B1, in the assay with human GLP-1 receptor, the “EC50 hGLP-1R (cAMP formation)” value was 0.3 nM. Also, the “EC50 hGlucagonR (cAMP formation)” value with human glucagon receptor is 0.148 nM.

The values above are taken from patent publication US20130336893A1 (Sanofi, published 2013).
